Experimental data: US20200281977A1 (HUMANITAS MIRASOLE S P A, published 2020)

Target: T1, IL-18Rα, human (human, UniProt Q13478 19-541)
T1 construct: whole, on cells; Detected on human NK cells with mouse monoclonal anti-IL-18Rα (Clone 70625; R&D Systems); also called IL-1R5/IL-18R
T1 sequence (looked up): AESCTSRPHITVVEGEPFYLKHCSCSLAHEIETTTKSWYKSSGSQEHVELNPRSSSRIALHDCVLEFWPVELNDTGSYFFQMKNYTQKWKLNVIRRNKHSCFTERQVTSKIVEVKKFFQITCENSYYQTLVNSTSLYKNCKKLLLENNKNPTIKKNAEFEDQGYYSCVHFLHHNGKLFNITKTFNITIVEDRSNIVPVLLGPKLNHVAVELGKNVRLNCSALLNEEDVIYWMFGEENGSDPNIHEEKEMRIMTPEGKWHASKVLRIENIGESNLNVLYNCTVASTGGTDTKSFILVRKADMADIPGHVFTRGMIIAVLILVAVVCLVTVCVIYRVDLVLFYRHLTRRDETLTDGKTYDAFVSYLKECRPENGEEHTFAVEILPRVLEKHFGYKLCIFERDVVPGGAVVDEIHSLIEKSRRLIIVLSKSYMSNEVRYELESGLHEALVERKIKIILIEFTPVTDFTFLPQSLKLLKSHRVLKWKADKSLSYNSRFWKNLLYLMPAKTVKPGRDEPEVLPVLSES
Experiment: STED microscopy of human NK cells stimulated with IL-18, co-stained with anti-IL-1R8 and anti-IL-18Rα antibodies
Procedure: Human NK cells were enriched and left to adhere on poly-D-lysine (Sigma-Aldrich)-coated coverslips, stimulated with IL-18 (50 ng ml⁻¹; 1 min, 5 min, 10 min), fixed with 4% PFA, incubated with 5% normal donkey serum (Sigma-Aldrich), 2% BSA, 0.05% Tween in PBS2+ (pH 7.4) (blocking buffer), and then with biotin-conjugated goat polyclonal anti-human IL-1R8 antibody or biotin-conjugated normal goat IgG (all from R&D Systems) and mouse monoclonal anti-IL-18Rα (Clone 70625; R&D Systems) or mouse IgG1 (Invitrogen), all diluted at 5 μg ml⁻¹ in blocking buffer, followed by Alexa Fluor 488-conjugated donkey anti-goat IgG antibody and Alexa Fluor 555 donkey anti-mouse IgG antibody (both from Molecular Probes). Mowiol was used as mounting medium. STED xyz images were acquired in a unidirectional mode with a Leica SP8 STED3X confocal microscope system. Alexa Fluor 488 was excited with a 488 nm argon laser and emission collected from 505 to 550 nm applying a gating between 0.4 and 7 ns to avoid collection of reflection and autofluorescence. Alexa Fluor 555 was excited with a 555/547 nm-tuned white light laser and emission collected from 580 to 620 nm. Line sequential acquisition was applied to avoid fluorescence overlap. The 660 nm CW-depletion laser (80% of power) was used for both excitations. […]

B1: Interleukin-1 receptor 8 (IL-1R8), human (receptor)
chain: MPGVCDRAPDFLSPSEDQVLRPALGSSVALNCTAWVVSGPHCSLPSVQWLKDGLPLGIGGHYSLHEYSWVKANLSEVLVSSVLGVNVTSTEVYGAFTCSIQNISFSSFTLQRAGPTSHVAAVLASLLVLLALLLAALLYVKCRLNVLLWYQDAYGEVEINDGKLYDAYVSYSDCPEDRKFVNFILKPQLERRRGYKLFLDDRDLLPRAEPSADLLVNLSRCRRLIVVLSDAFLSRAWCSHSFREGLCRLLELTRRPIFITFEGQRRDPAHPALRLLRQHRHLVTLLLWRPGSVTPSSDFWKEVQLALPRKVQYRPVEGDPQTQLQDDKDPMLILRGRVPEGRALDSEVDPDPEGDLGVRGPVFGEPSAPPHTSGVSLGESRSSEVDVSDLGSRNYSARTDFYCLVSKDDM
notes: Endogenous IL-1R8 on human primary NK cells; NP_001128525.1, NP_001128526.1, NP_068577.2); also called SIGIRR; single immunoglobulin IL-1R-related receptor
- binding result: binds
